Reference: article PMC4753479, “A CAPS-based binding assay provides semi-quantitative validation of protein-DNA interactions”

T1: rOsGD1-B3 (rice, UniProt Q0D5G4 342-640)
T1 sequence: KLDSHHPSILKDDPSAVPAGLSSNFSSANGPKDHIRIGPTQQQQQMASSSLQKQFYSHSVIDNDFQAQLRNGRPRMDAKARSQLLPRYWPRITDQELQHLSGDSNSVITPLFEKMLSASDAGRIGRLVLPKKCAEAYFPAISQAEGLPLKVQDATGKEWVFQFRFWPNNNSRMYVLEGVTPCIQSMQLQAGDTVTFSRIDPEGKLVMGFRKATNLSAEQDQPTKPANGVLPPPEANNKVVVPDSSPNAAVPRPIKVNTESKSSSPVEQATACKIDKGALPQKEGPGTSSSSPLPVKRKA

T2: rOsVAL2-B3 (rice, UniProt Q6Z3U3 144-517)
T2 sequence: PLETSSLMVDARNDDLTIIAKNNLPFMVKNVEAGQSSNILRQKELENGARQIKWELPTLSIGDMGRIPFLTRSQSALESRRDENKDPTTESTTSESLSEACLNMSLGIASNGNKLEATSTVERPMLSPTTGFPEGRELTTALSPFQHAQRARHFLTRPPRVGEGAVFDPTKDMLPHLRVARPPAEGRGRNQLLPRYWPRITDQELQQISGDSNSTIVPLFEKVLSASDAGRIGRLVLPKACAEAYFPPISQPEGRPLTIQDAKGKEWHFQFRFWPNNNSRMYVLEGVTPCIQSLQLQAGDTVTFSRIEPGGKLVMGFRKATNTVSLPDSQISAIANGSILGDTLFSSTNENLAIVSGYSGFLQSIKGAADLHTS

B1: WT RY pull-down probe (dsDNA)
DNA 1: TAATTGCATGCATATATGCACGC
DNA 2: GCGTGCATATATGCATGCAATTA

Assays:
rOsGD1-B3 [1] = biological target: T1, rOsGD1-B3; assay: restriction protection (CBA); details: 150 ng DNA in 15 ul, CBA: restriction enzyme buffer, 1-7 ug protein, 30 min at 37 C then 1 h digestion at 37 C, pull-down: 1 ug biotinylated DNA, 12 h …
rOsVAL2-B3 [2] = biological target: T2, rOsVAL2-B3; assay: restriction protection (CBA); details: NsiI, same inhibitory effect as 5 ug rOsGD1-B3, 150 ng DNA in 15 ul, CBA: restriction enzyme buffer, 1-7 ug protein, 30 min at 37 C then 1 h digestion at 37 C, pull-down: 1 ug biotinylated DNA, 12 h …
rOsGD1-B3 [3] = biological target: T1, rOsGD1-B3; assay: pull-down; weaker than rOsVAL2-B3; CBA: restriction enzyme buffer, 150 ng DNA, 1-7 ug protein, 15 ul, 30 min at 37 C then 1 h digestion at 37 C; pull-down: 1 ug biotinylated DNA, 12 h, streptavidin-agarose, wash TBS (20 mM Tris, 150 mM NaCl), competitors 5x/10x/20x; details: protein: recombinant; tags: 6xHis (pGoldI); label: 5' biotin, both strands; blunt
rOsVAL2-B3 [4] = biological target: T2, rOsVAL2-B3; assay: pull-down; stronger than rOsGD1-B3; CBA: restriction enzyme buffer, 150 ng DNA, 1-7 ug protein, 15 ul, 30 min at 37 C then 1 h digestion at 37 C; pull-down: 1 ug biotinylated DNA, 12 h, streptavidin-agarose, wash TBS (20 mM Tris, 150 mM NaCl), competitors 5x/10x/20x; details: protein: recombinant; tags: 6xHis (pGoldI); label: 5' biotin, both strands; blunt

Row | Molecule | protein amount for inhibition of NsiI digestion (rOsGD1-B3 [1]) [µg protein] | binding signal (rOsVAL2-B3 [2]) [µg protein] | binding result (rOsGD1-B3 [3]) | binding result (rOsVAL2-B3 [4])
1 | WT RY-DNA 420 bp | 5 | 3 |  | 
2 | B1 |  |  | binds | binds
